Experimental data from PMC11431768, “Mechanistic Insights into Substrate Recognition of Human Nucleoside Diphosphate Kinase C Based on Nucleotide-Induced Structural Changes” (International Journal of Molecular Sciences, 2024).

What was measured:
[1] = target: the molecule itself; experiment: SEC-MALS; SEC-RI-MALS; Superdex 200 5/150; samples at 60 to 600 µM; gel filtration buffer (20 mM Tris-HCl, 300 mM NaCl, 5 mM MgCl2, DTT); 0.3 mL/min; RI at 25 °C
[2] = target: the molecule itself; experiment: mass photometry; His-tagged NDPK-C directly after affinity purification

| Protein | stoichiometry N [1] | stoichiometry N [2] |
| --- | --- | --- |
| human nucleoside diphosphate kinase C, N-terminally truncated (residues Thr18–Glu169), untagged (enzyme, UniProt Q13232 18-169, looked up, human NDPK-C (nme3 gene product), residues Thr18-Glu169 of UniProt Q13232; The forward primer puts a start codon (Met) before Thr18; The results speak of a 156-residue subunit, while Thr18-Glu169 is 152 residues; The extra residues are probably what TEV cleavage leaves of the tag plus the Met; also called NDPK-C; NDPK isoform C; source: E. coli BL21 (DE3), purified (HisTrap, SEC, TEV cleavage, …)) TGAHERTFLAVKPDGVQRRLVGEIVRRFERKGFKLVALKLVQASEELLREHYAELRERPFYGRLVKYMASGPVVAMVWQGLDVVRTSRALIGATNPADAPPGTIRGDFCIEVGKNLIHGSDSVESARREIALWFRADELLCWEDSAGHWLYE | 6 |  |
| His-tagged human NDPK-C (residues Thr18–Glu169) (enzyme, UniProt Q13232 18-169, looked up, human NDPK-C (nme3 gene product), residues Thr18-Glu169 of UniProt Q13232; the expression plasmid encodes a 173 amino acid polypeptide including the N-terminal TEV-cleavable His-tag; 173 residues in all; also called His-NDPK-C; His-tagged NDPK-C; not shown: His6, N-terminal, kept) TGAHERTFLAVKPDGVQRRLVGEIVRRFERKGFKLVALKLVQASEELLREHYAELRERPFYGRLVKYMASGPVVAMVWQGLDVVRTSRALIGATNPADAPPGTIRGDFCIEVGKNLIHGSDSVESARREIALWFRADELLCWEDSAGHWLYE |  | 6 |
